Experimental findings from PMC10250397 are described below.

This assay has as its target SERCA2-mTurquoise2 (UniProt P16615). In words: FRET or BRET; three channel sensitized emission FRET on living HEK293-T cells, SERCA2-mTurquoise2 donor and GSK3β-sYFP2 acceptor, confocal microscope; normoxia or 60 min hypoxia followed by 30 min reoxygenation. (In BRET a luciferase serves as donor, and the signal depends on an acceptor being close.)
Sequence of UniProt P16615 (P16615 whole entry): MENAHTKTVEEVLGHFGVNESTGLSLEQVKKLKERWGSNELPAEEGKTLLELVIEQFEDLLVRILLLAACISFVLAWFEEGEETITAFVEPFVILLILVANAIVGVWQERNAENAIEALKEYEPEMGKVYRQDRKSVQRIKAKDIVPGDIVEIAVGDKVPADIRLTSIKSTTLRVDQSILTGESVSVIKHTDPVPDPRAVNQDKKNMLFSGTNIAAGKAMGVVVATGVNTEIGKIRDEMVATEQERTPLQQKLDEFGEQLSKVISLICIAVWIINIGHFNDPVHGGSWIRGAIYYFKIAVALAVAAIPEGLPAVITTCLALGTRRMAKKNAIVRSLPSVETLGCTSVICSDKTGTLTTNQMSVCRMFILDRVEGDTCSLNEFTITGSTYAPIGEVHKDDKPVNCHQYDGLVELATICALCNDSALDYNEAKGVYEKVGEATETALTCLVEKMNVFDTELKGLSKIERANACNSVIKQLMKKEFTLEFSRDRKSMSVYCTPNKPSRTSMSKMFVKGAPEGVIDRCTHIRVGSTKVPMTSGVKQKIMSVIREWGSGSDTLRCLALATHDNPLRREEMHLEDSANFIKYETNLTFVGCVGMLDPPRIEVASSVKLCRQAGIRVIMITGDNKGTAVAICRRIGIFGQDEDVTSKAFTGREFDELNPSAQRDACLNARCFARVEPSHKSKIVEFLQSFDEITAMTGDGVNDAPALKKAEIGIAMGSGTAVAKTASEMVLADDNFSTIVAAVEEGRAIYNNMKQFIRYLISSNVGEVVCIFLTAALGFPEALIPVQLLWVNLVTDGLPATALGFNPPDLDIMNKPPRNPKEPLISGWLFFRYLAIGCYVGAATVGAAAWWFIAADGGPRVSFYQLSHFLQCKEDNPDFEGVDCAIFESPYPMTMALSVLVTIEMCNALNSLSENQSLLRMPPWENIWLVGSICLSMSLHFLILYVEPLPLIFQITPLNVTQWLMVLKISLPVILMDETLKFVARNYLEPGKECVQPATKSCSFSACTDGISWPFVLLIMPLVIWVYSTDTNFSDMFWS

Sequence of GSK3β-sYFP2 (P49841 whole entry): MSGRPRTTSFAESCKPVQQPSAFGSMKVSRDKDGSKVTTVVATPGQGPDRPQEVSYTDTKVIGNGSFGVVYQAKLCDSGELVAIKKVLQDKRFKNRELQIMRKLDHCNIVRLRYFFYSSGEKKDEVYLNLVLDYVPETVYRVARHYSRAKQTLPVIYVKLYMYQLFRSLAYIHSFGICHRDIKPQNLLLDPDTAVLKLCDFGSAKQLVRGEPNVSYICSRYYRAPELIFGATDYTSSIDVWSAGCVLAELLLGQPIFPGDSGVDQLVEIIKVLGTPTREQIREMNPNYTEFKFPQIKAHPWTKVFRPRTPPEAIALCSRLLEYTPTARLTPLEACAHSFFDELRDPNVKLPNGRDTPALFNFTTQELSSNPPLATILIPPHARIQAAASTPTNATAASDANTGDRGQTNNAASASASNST

For the substance “GSK3β-sYFP2 (from UniProt P49841 1-420) (enzyme)”, the fold change of FRET efficiency after H/R against normoxia was determined as 3 fold.
Consider “GSK3β-sYFP2 (from UniProt P49841 1-420) (living HEK293-T cells)”, for which the FRET efficiency worked out at 3.11%.
